Positions count from the first letter of the chain named. Where no end group is shown, it is not given here. The star is where a group is joined. FITC = O=C1OC2(c3ccc(O)cc3Oc3cc(O)ccc32)c2ccc(NC(=S)*)cc21

Broadly, the Kd is the constant that tells how readily two partners part at equilibrium. Low readings indicate tighter binding, high ones weaker binding. The term stoichiometry N denotes a count of units in the complex or per binding partner.

In series [1] the target is T1, Dynein light chain LC8 (DYNLL2), 6xHis-tagged (UniProt Q96FJ2 1-89).
T1 construct: Dynein light chain LC8 (DYNLL2), an 89-residue protein; pEV vector with N-terminal 6xHis-tag; The calculated dimer mass of 20.7 kDa fits the untagged protein, so the His tag may have been removed; source: E. coli BL21 (DE3) Rosetta, purified (Ni IMAC, anion exchange on HiTrap Q-HP, SEC on Superdex 75)
T1 sequence (Q96FJ2 whole entry, looked up): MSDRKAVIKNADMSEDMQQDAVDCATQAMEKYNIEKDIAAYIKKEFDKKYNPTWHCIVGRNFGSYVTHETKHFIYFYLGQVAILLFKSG
The series is described as follows: fluorescence polarisation; competitive: 50 nM FITC-BMF peptide with LC8 at 80% saturation (12 μM), titrated with LCA5 peptide from 500 μM in two-fold dilutions; 25 °C, PBS, 2 mM TCEP, 0.05% Brij; triplicates. Conditions: both partners purified. For orientation: Fluorescence polarisation rises when a labelled molecule tumbles more slowly, as on binding a larger partner.

Series [2] concerns the target T1, Dynein light chain LC8 (DYNLL2), …. As to the kind of experiment: ITC; MBP-fused LCA5 construct in the cell, LC8 injected, 37 injections of 1 μl; 37 °C, PBS pH 7.4, 1 mM TCEP. Conditions: both partners purified.
Series [3] deals with the molecule itself. The series is described as follows: SEC; Superose 6 Increase 10/300, DPBS with 200 μM TCEP; LC8 or sLCA5-WT alone; masses estimated from a calibration curve.

B1: FITC-labelled BMF (Bcl-2-modifying factor) peptide (TSQEDKATQTL) (peptide)
peptide: {FITC}-TSQEDKATQTL
notes: also called BMF peptide; fluorescein labeled BMF peptide
With B1, in series [1], the binding result is “binds”.

B2: sLCA5-ΔVQT (domain or fragment, human (cDNA library from HEK293), UniProt Q86VQ0 96-430, looked up)
chain: DTDLVTKRILSARLLKINELQNEVSELQVKLAELLKENKSLKRLQYRQEKALNKFEDAENEISQLIFRHNNEITALKERLRKSQEKERATEKRVKDTESELFRTKFSLQKLKEISEARHLPERDDLAKKLVSAELKLDDTERRIKELSKNLELSTNSFQRQLLAERKRAYEAHDENKVLQKEVQRLYHKLKEKERELDIKNIYSNRLPKSSPNKEKELALRKNAACQSDFADLCTKGAAAMEDFKPEEYPLTPETIMCYENKWEEPGHLTLDLQSQKQDRHGEAGILNPIMEREEKFVTDEELHVVKQEVEKLEDEWEREELDKKQKEKASLLER
notes: position 333 worked out from the printed motif limits; Made by quick-change mutagenesis from sLCA5-WT; also called ΔVQT mutant; source: E. coli BL21 (DE3) Rosetta, purified (amylose resin, IMAC); clarified lysate for the pull-down; not shown: MBP, N-terminal, kept; His6, C-terminal, kept
B2 had a Kd in series [2] of 1220 ± 80 nM.

B3: sLCA5-WT (LCA5 96-430 with N-terminal MBP and C-terminal 6xHis) (domain or fragment, human (cDNA library from HEK293), UniProt Q86VQ0 96-430, looked up)
chain: B2 chain with A238V, A239Q, A240T
notes: Monomer of the construct 84 kDa; also called wild-type LCA5 fragment; source: E. coli BL21 (DE3) Rosetta, purified (amylose resin, IMAC); clarified lysate for the pull-down; not shown: MBP, N-terminal, kept; His6, C-terminal, kept
The molecule B3 displayed a Kd in series [2] of 760 ± 60 nM. The “stoichiometry N” value in series [3] was ~4.

B4: sLCA5-ΔCQS (domain or fragment, human (cDNA library from HEK293), UniProt Q86VQ0 96-430, looked up)
chain: B2 chain with C226A, Q227A, S228A, A238V, A239Q, A240T
notes: position 321 worked out from the printed motif limits; Made by quick-change mutagenesis from sLCA5-WT; also called ΔCQS mutant; source: E. coli BL21 (DE3) Rosetta, purified (amylose resin, IMAC); clarified lysate for the pull-down; not shown: MBP, N-terminal, kept; His6, C-terminal, kept
In series [2], B4 showed a Kd of 680 ± 80 nM.
